A short description of series [1]: MicroPET imaging. In kind it is in vivo, mouse. The conditions noted are these: female, athymic nude, mouse, in vivo, 100 uCi, total radioactivity.
The test system of series [2] is MDA-MB-435 tumor-bearing mice. Put plainly: MicroPET imaging. The format is in vivo, mouse. As to conditions: co-injection with 300 µg unlabeled c(RGDfk) per mouse.

Each structure is given as a SMILES string.

With `CC(=O)N(O)CCCCCNC(=O)CCC(=O)N(O)CCCCCNC(=O)CCC(=O)N(O)CCCCCNC(=S)Nc1ccc(NC(=S)NCCOCCOCCOCCOCCC(=O)N[C@@H](CCC(=O)NCCOCCOCCOCCOCCC(=O)NCCCC[C@@H]2NC(=O)[C@@H](Cc3ccccc3)NC(=O)[C@H](CC(=O)O)NC(=O)CNC(=O)[C@H](CCCNC(=N)N)NC2=O)C(=O)NCCOCCOCCOCCOCCC(=O)NCCCC[C@@H]2NC(=O)[C@@H](Cc3ccccc3)NC(=O)[C@H](CC(=O)O)NC(=O)CNC(=O)[C@H](CCCNC(=N)N)NC2=O)cc1` [^89Zr-Df-[FK]2-3PEG4, metal not drawn], in series [1], the tissue to tissue ratio at 0.5 h turned out to be 12.6 ± 1.07, the tissue to tissue ratio at 1 h was determined as 16.2 ± 3.23, the tissue to tissue ratio at 2 h amounted to 18.2 ± 2.52 and the tissue to tissue ratio at 4 h was determined as 19.7 ± 3.99. Further, the tissue to tissue ratio at 24 h in series [1] was 10.8 ± 1.31. Also, in series [1] (SD), the tissue uptake at 0.5 h is 3.98 ± 0.5 %ID/g, the tissue uptake at 2 h was 4.72 ± 0.66 %ID/g, the tissue uptake at 4 h came out at 4.47 ± 0.81 %ID/g and the tissue uptake at 24 h came to 2.2 ± 0.26 %ID/g. In addition, in series [2], the “decrease of tumor uptake (PET) by blocking” value is “approximately 90%”.

Values taken from PMC3137711 (Molecular imaging and biology : MIB : the official …, 2011).
